Where two headings read alike, the source gives them in different places.
Columns and labels:
[1] = molecular target: T1, human CC chemokine receptor 4 (CCR4) (human, UniProt P51679 1-360); assay: flow cytometry, saturation titration of scFv cross-linked via myc-tag on DT-40 CCR4+ cells; one site-specific binding fit
T1 construct: whole, on cells; Always presented on cells; also called CD194; human CCR4
T1 sequence (looked up): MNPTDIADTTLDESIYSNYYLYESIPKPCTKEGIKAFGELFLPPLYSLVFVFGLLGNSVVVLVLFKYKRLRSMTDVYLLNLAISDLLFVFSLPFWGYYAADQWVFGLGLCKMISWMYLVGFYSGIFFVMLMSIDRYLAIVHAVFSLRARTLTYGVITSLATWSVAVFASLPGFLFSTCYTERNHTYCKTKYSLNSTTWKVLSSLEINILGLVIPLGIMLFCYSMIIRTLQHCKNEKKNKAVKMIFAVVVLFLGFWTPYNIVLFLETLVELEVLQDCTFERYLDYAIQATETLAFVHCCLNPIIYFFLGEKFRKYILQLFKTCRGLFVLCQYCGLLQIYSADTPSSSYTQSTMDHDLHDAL
Protocol: DT 40 and CCRF-CEM cells were cultured as described in Example 2. The DT40 CCR4+ and DT40 (CCR4−) cells were harvested from culture flasks, washed 2 times with PBS (400×g, 5 min, 4° C.) and resuspended in PBS containing 0.2% BSA and 0.09% NaN₃. 1×10⁵ cells per well were aliquoted into V-shaped 96-well plates (Greiner Bio-One, Frikenhausen, Germany). […] […] Cells were washed, resuspended in 200 μl PBS with 0.2% BSA and 0.09% NaN₃, and transferred to a U-shaped 96 well Costar (Corning, Schiphol-Rijik, The Netherlands) plate for flow cytometry using an Easy Cyte device (Guava Technologies, Hayward, Calif., USA).

[2] = molecular target: T1, human CC chemokine receptor 4 (CCR4); assay: competition flow cytometry on CCRF-CEM cells: unlabelled competitor against ca. 20 nM biotinylated MDC, streptavidin-PE [d]
Protocol: The competition binding assays were performed with biotinylated MDC or biotinylated TARC on DT-40-CCR4+ and CCRF-CEM cells. DT40 and CCRF-CEM cells were cultured as described in Example 2. TARC and MDC were biotinylated using standard procedures. The biotinylation process causes some losses, so the concentrations of biotinylated MDC and TARC recited herein are approximate.
The cells were harvested from culture flasks, washed 2 times with PBS (400×g, 5 min, 4° C.) and resuspended in PBS containing 0.2% BSA and 0.09% NaN3. 1×10^5 cells per well were aliquoted into V-shaped 96-well plates (Greiner Bio-One, Frikenhausen, Germany). Cells were centrifuged (400×g, 5 min, 4° C.) and resuspended in 50 μl IgG, single chain or unlabeled ligand (1:10 dilution series starting on 100/500/26, 4 μg/ml) mixed with a fixed concentration of biotinylated ligand (10 or 20 nM, see legend to FIG. 24). The cells were incubated for 2 hours at 4° C. and mixed with a pipette every 45 min. The cells were washed three times with 150 μl PBS with 0.2% BSA and 0.09% NaN3 and stained with 3 μg/ml streptavidin PE (BD Biosciences) for 45 minutes at 4° C. […] Apparent binding affinities (KD) were calculated according to the following equation derived from previously described methods (Kipriyanov et al, 1997b; Schodin & Kranz, 1993): […]

[3] = molecular target: T1, human CC chemokine receptor 4 (CCR4); assay: IgG1 expressed from pLNO, purified; method not told there
[4] = molecular target: T1, human CC chemokine receptor 4 (CCR4); assay: cell-based or functional assay
[5] = molecular target: T1, human CC chemokine receptor 4 (CCR4); assay: flow cytometry, IgG titration on DT-40 CCR4+ cells, anti-human-FITC, MFI [a]
Protocol: The quality of the specific binding to DT40+ cells was tested for 9E1 D and 9E10J in scFv or IgG format in a titration experiment.
Alternatively, 9E1D and 9E10J were converted into the full-length human IgG1 and tested for cell binding. The DT40+CCR4 and DT40 cells were harvested from culture flasks, washed 2 times with PBS (400×g, 5 min, 4° C.) and resuspended in PBS containing 0.2% BSA and 0.09% NaN₃. 1×10⁵ cells per well were aliquoted into V-shaped 96-well plates (Greiner Bio-One, Frikenhausen, Germany). Cells were centrifuged (400×g, 5 min, 4° C.) and resuspended in a 1:5 dilution series of IgG starting on 10 μg/ml (50 μl/well). After 1 hour incubation at 4° C., the cells were washed three times with 150 μl PBS with 0.2% BSA and 0.09% NaN₃ and stained with 2.5 μg/ml RPE conjugated goat anti-human IgG (AbDSerotec, Düsseldorf, Germany) or 2.5 μg/ml anti human IgG Fc (goat polyclonal aff. pur) FITC (Sigma Aldrich) for 45 minutes at 4° C. Cells were washed, resuspended in 200 μl PBS with 0.2% BSA and 0.09% NaN₃, and transferred to a U-shaped 96 well Costar (Corning, Schiphol-Rijik, The Netherlands) plate for flow cytometry using an Easy Cyte device (Guava Technologies, Hayward, Calif., USA) or FACS Canto II flow cytometer (BD Biosciences, Heidelberg, Germany).

[6] = molecular target: T1, human CC chemokine receptor 4 (CCR4); assay: competition flow cytometry on CCR4-transfected DT40 cells: unlabelled IgG against 6.8 nM biotinylated KM3060var IgG, streptavidin-RPE
Protocol: To analyze the epitope binding of anti-CCR4 antibodies 17G, 9E and KM3060var, competition experiments were performed using flow cytometry. The binding of biotinylated antibodies to CCR4 transfected DT40-cells was challenged in the presence of different concentrations of non-biotinylated anti-CCR4 antibodies. The CCR4⁺ DT40 cells were harvested from culture flasks, washed 2 times with PBS, re-suspended in PBS with 0.2% BSA and 0.09% NaN₃ and finally aliquoted 1×10⁵ cells per well into V-shaped 96-well plates (Greiner Bio-One, Frickenhausen, Germany). Cells were centrifuged at 400×g for 5 min and then incubated at 4° C. for 3-4 hours with fixed amounts of biotinylated IgG and different concentrations of non-biotinylated antibodies. After washing with PBS with 0.2% BSA and 0.09% NaN₃, the cells were stained with 2.5 μg/ml of Streptavidin—RPE (BD Pharmingen, San Diego, Calif., USA) for 30 minutes at 4° C. The stained cells were washed, re-suspended in 250 μl PBS with 0.2% BSA and 0.09% NaN₃ and transferred to a U-shaped 96-well plate (Corning, Schiphol-Rijk, The Netherlands) for acquisition on EasyCyte flow cytometer (Guava Technologies, Hayward, Calif., USA). The results shown in FIGS. 10 A, B and C illustrate that the 17G and 9E antibodies have epitopes that are identical or at least overlapping.

[7] = molecular target: T1, human CC chemokine receptor 4 (CCR4); assay: flow cytometry, IgG titration on CCRF-CEM cells; one site-specific binding fit (Prism); IgG titration on CCRF-CEM cells (natural CCR4+ line)
Protocol: (§1) The IgG forms of antibodies 17G, 9E and KM3060var using various CCR4⁺ cell types were used (see Example 2).
(§2) For the flow cytometry experiments, the cells were harvested from the culture flasks, washed 2 times with PBS, re-suspended in PBS with 0.2% BSA and 0.09% NaN₃ and finally aliquoted 1×10⁵ cells per well into V-shaped 96-well plates (Greiner Bio-One, Frickenhausen, Germany). Cells were centrifuged at 400×g for 5 min and then incubated at 4° C. for 45 min with different antibody dilutions.
(§3) After washing with PBS with 0.2% BSA and 0.09% NaN₃, the cells were stained with 10 μg/ml of RPE-conjugated goat anti-human IgG (AbDSerotec, Düsseldorf, Germany) for 30 minutes at 4° C. The stained cells were washed, re-suspended in 200 μl PBS with 0.2% BSA and 0.09% NaN₃ and transferred to a U-shaped 96-well plate (Corning, Schiphol-Rijk, The Netherlands) for acquisition on EasyCyte flow cytometer (Guava Technologies, Hayward, Calif., USA).

[8] = molecular target: T1, human CC chemokine receptor 4 (CCR4); assay: flow cytometry, IgG titration on CCR4+ HEK293T cells; one site-specific binding fit (Prism); IgG titration on CCR4+ HEK293T cells
Protocol: as §1, §2, §3

[9] = molecular target: T1, human CC chemokine receptor 4 (CCR4); assay: cell-based or functional assay; remark: listed apart in the source
[10] = molecular target: T1, human CC chemokine receptor 4 (CCR4); assay: flow cytometry, IgG titration on CCR4+ DT40 cells (2); one site-specific binding fit (Prism); IgG titration on CCR4+ DT40 cells, second experiment, DT40 (2)
Protocol: as §1, §2, §3

[11] = molecular target: T1, human CC chemokine receptor 4 (CCR4); assay: flow cytometry, IgG titration on CCR4+ DT40 cells; one site-specific binding fit (Prism); IgG titration on CCR4+ DT40 cells
Protocol: as §1, §2, §3

[12] = molecular target: T1, human CC chemokine receptor 4 (CCR4); assay: cell-based or functional assay; remark: listed apart in the source

B1: 9E1D scFv (scFv)
scFv: QVQLVQSGAEVKKPGSSVKVSCKASGGTFSNYAISWVRQAPGQGLEWMGGIIPIFGTANYAQKFQGRVTITADESTSTAYMELSSLRSEDTAVYYCARRGGSYFDYWGQGTLVTVSSKLSGSASAPKLEEGEFSEARVQPVLTQPPSASGTPGQRVTISCSGGGSNIGRRFVNWYQQLPGTAPKLLIYRNNQRPSGVPDRFSGSKSGTSASLVISGLRSEDEADYYCAAWDDSLSGWVFGGGTKLTVLAAAGSEQKLISEEDLNSHHHHHH
notes: also called scFv 9E1D
- Kd [1]: 5.22 nM

B2: 9E scFv (scFv)
scFv: QVQLVQSGAEVKKPGSSVKVSCKASGGTFSNYAISWVRQAPGQGLEWMGGIIPIFGTANYAQKFQGRVTITADESTSTAYMELSSLRSEDTAVYYCARRGGSYFDYWGQGTLVTVSSKLSGSASAPKLEEGEFSEARVSYVLTQPPSASGTPGQSVTISCSGSTSNIGSHYVFWYQQLPGTAPRLLIYRNHQRPSGVPDRLSGSKSGTSASLAISGLRSEDEADYYCAVWDDTLSGWVFGGGTKLTVLAAAGSEQKLISEEDLNSHHHHHH
notes: For staining the scFv was pre-incubated with an anti-c-myc antibody with human Fc (cross-linked, dimer-like); also called scFv 9E
- Kd [1]: 4.95 nM

B3: 9E10J scFv (scFv)
scFv: QVQLVQSGAEVKKPGSSVKVSCKASGGTFSSYAISWVRQAPGQGLEWMGGIIPIFGTANYAQKFQGRVTMTRDTSTSTVYMELSSLRSEDTAVYYCARRGGSYFDYWGQGTLVTVSSKLSGSASAPKLEEGEFSEARVSYVLTQPPSASGTPGQSVTISCSGSTSNIGSHYVFWYQQLPGTAPRLLIYRNHQRPSGVPDRLSGSKSGTSASLAISGLRSEDEADYYCAVWDDTLSGWVFGGGTKLTVLAAAGSEQKLISEEDLNSHHHHHH
notes: also called scFv 9E10J
- Kd [1]: 1.17 nM
- IC50 (read off the curve) [2]: ~200 nM

B4: 11F IgG (full length human IgG1, kappa) (antibody, V domains shown)
VH: not shown
VL: ETTLTQSPGTLSLSPGEGVTLSCRASQSVNRRYLAWYQQKPGQAPRLLIYGASSRATGIPDRFSGSGSGTDFTLTISRLEPEDFAVYYCQQYGSSPLTFGGGTKVEIKR
- binding result [3]: binds

B5: defucosylated 9E10J IgG (antibody, V domains shown)
VH: QVQLVQSGAEVKKPGSSVKVSCKASGGTFSSYAISWVRQAPGQGLEWMGGIIPIFGTANYAQKFQGRVTMTRDTSTSTVYMELSSLRSEDTAVYYCARRGGSYFDYWGQGTLVTVSS
VL: SYVLTQPPSASGTPGQSVTISCSGSTSNIGSHYVFWYQQLPGTAPRLLIYRNHQRPSGVPDRLSGSKSGTSASLAISGLRSEDEADYYCAVWDDTLSGWVFGGGTKLTVLG
modifications: Fc glycans defucosylated (IgG produced in the presence of Kifunensine, 100 ng/ml)
- ADCC of CCRF-CEM cells, EC50 (mean, N=4) [4]: 0.0021 µg/mL

B6: 9E1D IgG (full length human IgG1, lambda) (antibody, V domains shown)
VH: QVQLVQSGAEVKKPGSSVKVSCKASGGTFSNYAISWVRQAPGQGLEWMGGIIPIFGTANYAQKFQGRVTITADESTSTAYMELSSLRSEDTAVYYCARRGGSYFDYWGQGTLVTVSS
VL: QPVLTQPPSASGTPGQRVTISCSGGGSNIGRRFVNWYQQLPGTAPKLLIYRNNQRPSGVPDRFSGSKSGTSASLVISGLRSEDEADYYCAAWDDSLSGWVFGGGTKLTVLG
- binding result [5]: binds

B7: KM3060var IgG (antibody, V domains shown)
VH: EVQLVESGGDLMKPGGSLKISCAASGFIFSNYGMSWVRQTPDMRLEWVATISSASTYSYYPDSVKGRFTISRDNAENSLYLQMNSLRSEDTGIYYCGRHSDGNFAFGYWGRGTLVTVSS
VL: DVLMTQTPLSLPVSLGDQASISCRSSRNIVHINGDTYLEWYLQRPGQSPKLLIYKVSNRFSGVPDRFSGSGSGTDFTLKISRVEAEDLGVYYCFQGSLLPWTFGGGTRLEIK
notes: Corresponds to KM3060 expressed in a different host; also called comparator KM3060var
- ADCC of CCRF-CEM cells, EC50 (mean, N=3) [4]: 0.405 µg/mL
- IC50 (read off the curve) [6]: ~6 nM
- Kd [7]: 79.8 nM
- Kd [8]: 11.4 nM
- Ca++ flux in CCRF-CEM cells: signal response to MDC stimulation (% of MDC in the absence of IgGs), IgG 10 µg/mL [9]: 92%
- Ca++ flux in CCRF-CEM cells: signal response to TARC stimulation (% of TARC alone), IgG 10 µg/mL [9]: 104%
- Kd [10]: 4.82 nM
- Kd [11]: 3.67 nM
- ADCC of CCRF-CEM cells, EC50 (mean, N=3) [12]: 0.367 µg/mL

Reference: patent US20160208003A1 (AFFITECH RESEARCH, published 2016)
